Molecular target: the molecule itself
Experiment: SEC; size exclusion profile of recombinant NiNTA purified 6X HIS SUMO proteins on a SD75 column, void volume 40.25 ml; AtSUMO3 and AtSUMO5 after refolding

B1: 6X HIS tagged AtSUMO5, recombinant, refolded (natural protein, Arabidopsis thaliana, UniProt Q8VZI7 1-108, looked up)
chain: MVSSTDTISASFVSKKSRSPETSPHMKVTLKVKNQQGAEDLYKIGTHAHLKKLMSAYCTKRNLDYSSVRFVYNGREIKARQTPAQLHMEEEDEICMVMELGGGGPYTP
notes: 15N-labelled; not shown: His6, N-terminal, kept
B1: binds.

B2: 6X HIS tagged AtSUMO3, recombinant, refolded (natural protein, Arabidopsis thaliana, UniProt Q9FLP5 1-111, looked up)
chain: MSNPQDDKPIDQEQEAHVILKVKSQDGDEVLFKNKKSAPLKKLMYVYCDRRGLKLDAFAFIFNGARIGGLETPDELDMEDGDVIDACRAMSGGLRANQRQWSYMLFDHNGL
notes: as for B1
B2: binds.

Source: publication PMC7461331, “Stability of Begomoviral pathogenicity determinant βC1 is modulated by mutually antagonistic SUMOylation and SIM interactions” (BMC Biology, 2020)
